The text below walks through data of paper PMC7713142, “Crystal structure of the yeast heterodimeric ADAT2/3 deaminase”.

Data set [1] addresses Saccharomyces cerevisiae ADAT3 (S. cerevisiae).
Data set [2] has as its target ScADAT2 (TAD2);ScADAT3 K72A/R73A (Saccharomyces cerevisiae;Saccharomyces …, UniProt P47058;Q9URQ3 1-250;1-322, |K72A;R73A). Put plainly: EMSA; 2 uM tRNA, varied enzyme:tRNA molar ratios; EMSA: 20 mM Tris-HCl pH 8.0, 1 mM DTT, 2 uM tRNA, on ice 60 min; 6% native PAGE, 40 mM Tris-HCl pH 9.0 running buffer. Particulars: protein: recombinant;recombinant; tags: none (untagged in co-expression);N-terminal His6, cleaved (PreScission); copies: 1;1; label: none; tRNA cloverleaf. In general terms: A gel shift assay detects complexes by their altered migration in electrophoresis.

Data set [3] has as its target ScADAT2 (TAD2);ScADAT3 (TAD3) WT (Saccharomyces cerevisiae;Saccharomyces …, UniProt P47058;Q9URQ3 1-250;1-322, |). The data set is described as above. Particulars: protein: recombinant;recombinant; tags: none (untagged in co-expression);N-terminal His6, cleaved (PreScission); copies: 1;1; label: none; tRNA cloverleaf.
Data set [4] addresses ScADAT2 (TAD2);ScADAT3 Del30-148 (Saccharomyces cerevisiae;Saccharomyces …, UniProt P47058;Q9URQ3 1-250;1-322, |del30-148). The data set is described as above. Particulars: protein: recombinant;recombinant; tags: none (untagged in co-expression);N-terminal His6, cleaved (PreScission); copies: 1;1; label: none; tRNA cloverleaf.
The target in data set [5] is ScADAT2 (TAD2);ScADAT3 R75A/K76A (Saccharomyces cerevisiae;Saccharomyces …, UniProt P47058;Q9URQ3 1-250;1-322, |R75A;K76A). The description is as above. To be noted: protein: recombinant;recombinant; tags: none (untagged in co-expression);N-terminal His6, cleaved (PreScission); copies: 1;1; label: none; tRNA cloverleaf.
The target in data set [6] is ScADAT2 (TAD2);ScADAT3 K50A (Saccharomyces cerevisiae;Saccharomyces …, UniProt P47058;Q9URQ3 1-250;1-322, |K50A). Described as above. Particulars: protein: recombinant;recombinant; tags: none (untagged in co-expression);N-terminal His6, cleaved (PreScission); copies: 1;1; label: none; tRNA cloverleaf.
Chain of ScADAT2 (TAD2);ScADAT3 K50A (P47058 whole entry, chain 1 of 2): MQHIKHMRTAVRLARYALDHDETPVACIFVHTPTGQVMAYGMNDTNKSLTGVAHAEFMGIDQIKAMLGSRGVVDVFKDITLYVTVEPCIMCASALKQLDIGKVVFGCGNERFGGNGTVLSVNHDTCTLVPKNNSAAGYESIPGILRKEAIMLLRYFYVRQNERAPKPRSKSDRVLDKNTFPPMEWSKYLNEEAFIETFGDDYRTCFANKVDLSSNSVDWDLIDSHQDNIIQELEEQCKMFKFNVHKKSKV
Chain of ScADAT2 (TAD2);ScADAT3 K50A (Q9URQ3 whole entry K50A, chain 2 of 2): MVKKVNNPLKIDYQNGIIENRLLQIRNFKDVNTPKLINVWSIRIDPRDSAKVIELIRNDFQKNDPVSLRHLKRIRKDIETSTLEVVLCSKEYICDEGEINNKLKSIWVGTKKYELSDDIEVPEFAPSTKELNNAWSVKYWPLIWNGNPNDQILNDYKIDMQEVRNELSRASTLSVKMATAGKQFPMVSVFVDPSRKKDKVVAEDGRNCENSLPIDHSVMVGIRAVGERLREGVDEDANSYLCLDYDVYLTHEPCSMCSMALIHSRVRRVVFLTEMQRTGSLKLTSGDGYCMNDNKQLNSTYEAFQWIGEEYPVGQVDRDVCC

Chain of ScADAT2 (TAD2);ScADAT3 R75A/K76A (P47058 whole entry, chain 1 of 2): as the sequence (P47058 whole entry, chain 1 of 2) above
Chain of ScADAT2 (TAD2);ScADAT3 R75A/K76A (Q9URQ3 whole entry R75A/K76A, chain 2 of 2): as the sequence (Q9URQ3 whole entry K50A, chain 2 of 2) above, with A50K, R75A, K76A counted along it
Chain of ScADAT2 (TAD2);ScADAT3 K72A/R73A (P47058 whole entry, chain 1 of 2): as the sequence (P47058 whole entry, chain 1 of 2) above
Chain of ScADAT2 (TAD2);ScADAT3 K72A/R73A (Q9URQ3 whole entry K72A/R73A, chain 2 of 2): as the sequence (Q9URQ3 whole entry K50A, chain 2 of 2) above, with A50K, K72A, R73A counted along it
Chain of ScADAT2 (TAD2);ScADAT3 Del30-148 (P47058 whole entry, stated change not applied, chain 1 of 2): as the sequence (P47058 whole entry, chain 1 of 2) above
Chain of ScADAT2 (TAD2);ScADAT3 Del30-148 (Q9URQ3 other isoform, or with tags, fused parts or gaps |del30-148, chain 2 of 2): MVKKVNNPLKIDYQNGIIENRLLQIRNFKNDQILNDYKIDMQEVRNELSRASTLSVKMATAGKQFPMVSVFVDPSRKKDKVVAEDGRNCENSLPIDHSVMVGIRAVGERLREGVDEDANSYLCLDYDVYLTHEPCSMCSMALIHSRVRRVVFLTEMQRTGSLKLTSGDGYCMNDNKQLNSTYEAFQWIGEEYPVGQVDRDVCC
Chain of ScADAT2 (TAD2);ScADAT3 (TAD3) WT (P47058 whole entry, chain 1 of 2): as the sequence (P47058 whole entry, chain 1 of 2) above
Chain of ScADAT2 (TAD2);ScADAT3 (TAD3) WT (Q9URQ3 whole entry, chain 2 of 2): as the sequence (Q9URQ3 whole entry K50A, chain 2 of 2) above, with A50K counted along it

Regarding ScADAT2/F57A (enzyme), in data set [1], the in vitro deamination of tRNA^Ala by the heterodimer (30 nM enzyme), coupled to cleavage by EcEndoV, against WT is more than 50 % activity.
For ScADAT2/I89A (enzyme), the in vitro deamination of tRNA^Ala by the heterodimer (30 nM enzyme), coupled to cleavage by EcEndoV, against WT in data set [1] is more than 50 % activity.
Still for that read-out and setting: under ScADAT2/L119A/V121A (enzyme) stands more than 50 % activity.
Molecule ScADAT2/L49A (enzyme) displayed an in vitro deamination of tRNA^Ala by the heterodimer (30 nM enzyme), coupled to cleavage by EcEndoV, against WT in data set [1] of more than 50 % activity.
On the same count and under the same terms, under ScADAT2/V52A (enzyme) stands more than 50 % activity; under ScADAT2/Q97A (enzyme), more than 50 % activity.
Still for that read-out and setting: as for ScADAT2/S69A (enzyme), the figure is more than 50 % activity.
Same read-out and setting: under “ScADAT2-D124A/T125A/C126A/T127A (enzyme)” stands more than 50 % activity; under ScADAT2/S93A (enzyme), more than 50 % activity.

B1: tRNAAla (structured_RNA)
RNA: GGGCGUGUGGCGUAGUCGGUAGCGCGCUCCCUUAGCAUGGGAGAGGUCUCCGGUUCGAUUCCGGACUCGUCCACCA
modifications: none (in vitro transcript)
Regarding B1, the binding result in data set [2] is reported as “no binding”; in data set [3] it was “binds”; in data set [4], “no binding”; in data set [5], “no binding”; in data set [6], “no binding”.
